Experimental findings from patent US20120245104A1, “NOVEL RETRO-INVERSO LEPTIN PEPTIDE ANTAGONISTS” (priority 2011, published 2012) are described below.

The target in test [1] is T1, leptin receptor (ObR) (UniProt P48357 22-1165, limits assumed).
T1 sequence (looked up): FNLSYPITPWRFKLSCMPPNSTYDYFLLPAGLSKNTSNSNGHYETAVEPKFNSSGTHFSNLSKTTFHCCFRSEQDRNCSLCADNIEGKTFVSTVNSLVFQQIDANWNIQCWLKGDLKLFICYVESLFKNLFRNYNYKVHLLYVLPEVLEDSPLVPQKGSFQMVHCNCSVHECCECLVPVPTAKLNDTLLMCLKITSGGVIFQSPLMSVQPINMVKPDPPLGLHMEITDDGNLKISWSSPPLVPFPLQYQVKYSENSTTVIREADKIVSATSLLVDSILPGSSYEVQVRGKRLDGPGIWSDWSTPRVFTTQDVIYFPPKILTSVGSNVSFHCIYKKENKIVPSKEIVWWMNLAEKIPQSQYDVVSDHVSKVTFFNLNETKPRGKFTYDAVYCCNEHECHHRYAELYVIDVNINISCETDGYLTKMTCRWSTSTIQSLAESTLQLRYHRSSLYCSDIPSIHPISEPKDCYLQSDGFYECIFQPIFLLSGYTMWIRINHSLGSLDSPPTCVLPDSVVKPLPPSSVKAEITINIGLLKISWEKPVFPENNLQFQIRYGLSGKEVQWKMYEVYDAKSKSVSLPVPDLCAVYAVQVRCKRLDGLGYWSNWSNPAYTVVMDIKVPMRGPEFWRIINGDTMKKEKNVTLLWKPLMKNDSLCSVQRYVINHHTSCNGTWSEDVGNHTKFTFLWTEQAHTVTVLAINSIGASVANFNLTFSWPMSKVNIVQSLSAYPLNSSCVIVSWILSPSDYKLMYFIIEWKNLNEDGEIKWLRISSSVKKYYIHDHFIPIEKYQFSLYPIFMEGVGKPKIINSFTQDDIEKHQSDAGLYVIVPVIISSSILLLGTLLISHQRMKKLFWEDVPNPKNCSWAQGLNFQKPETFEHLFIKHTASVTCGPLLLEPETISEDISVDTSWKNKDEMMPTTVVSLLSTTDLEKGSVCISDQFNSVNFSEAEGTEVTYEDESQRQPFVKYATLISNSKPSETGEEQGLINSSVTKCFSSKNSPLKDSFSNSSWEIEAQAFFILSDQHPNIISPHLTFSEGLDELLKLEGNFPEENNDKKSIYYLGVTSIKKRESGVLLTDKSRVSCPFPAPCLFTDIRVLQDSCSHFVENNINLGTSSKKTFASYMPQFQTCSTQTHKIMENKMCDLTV
The test is described as follows: cell-based or functional assay.

Test [2] concerns the target T1, leptin receptor (ObR). The test is described as follows: cell-based or functional assay. This is another data set of the same source.

Where no end group is shown, it is not given here.

In the case of VQDDTKTLIKTIVTRINDI-NH2 [Truncated LPA-1 (6-24), T10 (original amino acid)], the “IC50 (half maximal inhibitory concentration), inhibition of leptin-induced cell growth” value (from here on “IC50 … inhibition of leptin-induced cell growth”) with leptin receptor (ObR) [1] came to 25.7 nM. In addition, in the test with leptin receptor (ObR) [2], the “IC50, inhibition of leptin-induced growth of MCF-7 cells” value (from here on “IC50, inhibition”) was 25.7 nM.

Turning to NVIQISNDLENLRDLLHV-NH2 [Truncated LPA-2 (72-89), D79 (original amino acid)], the “IC50 … inhibition of leptin-induced cell growth” value in the test with leptin receptor (ObR) [1] was determined as 32 nM. In addition, the “IC50, inhibition” value in the test with leptin receptor (ObR) [2] stood at 32 nM.

For the molecule IQKVQDDTKTLIKTIVTRINDISHTQSVSSKQ-NH2 [Full-length LPA-1 (3-34)], in the test with leptin receptor (ObR) [1], the “IC50 … inhibition of leptin-induced cell growth” value turned out to be 39.1 nM. In addition, the “IC50, inhibition” value with leptin receptor (ObR) [2] was found to be 39.1 nM.

In the case of SRNVIQISNDLENLRDLLHVLAFSKS-NH2 [Full-length LPA-2 (70-95)], the “IC50 … inhibition of leptin-induced cell growth” value with leptin receptor (ObR) [1] stood at 33 nM. Further, the “IC50, inhibition” value in the test with leptin receptor (ObR) [2] was 33 nM.
